From US20240182536A1 (MURAL ONCOLOGY, published 2024)

How the values were obtained:
[1] = target: T1, IL-18 receptors on HEK-Blue IL-18 reporter cells (UniProt Q13478 19-541; O95256 20-599, limits assumed); experiment: cell-based or functional assay
T1 sequence (looked up) 1: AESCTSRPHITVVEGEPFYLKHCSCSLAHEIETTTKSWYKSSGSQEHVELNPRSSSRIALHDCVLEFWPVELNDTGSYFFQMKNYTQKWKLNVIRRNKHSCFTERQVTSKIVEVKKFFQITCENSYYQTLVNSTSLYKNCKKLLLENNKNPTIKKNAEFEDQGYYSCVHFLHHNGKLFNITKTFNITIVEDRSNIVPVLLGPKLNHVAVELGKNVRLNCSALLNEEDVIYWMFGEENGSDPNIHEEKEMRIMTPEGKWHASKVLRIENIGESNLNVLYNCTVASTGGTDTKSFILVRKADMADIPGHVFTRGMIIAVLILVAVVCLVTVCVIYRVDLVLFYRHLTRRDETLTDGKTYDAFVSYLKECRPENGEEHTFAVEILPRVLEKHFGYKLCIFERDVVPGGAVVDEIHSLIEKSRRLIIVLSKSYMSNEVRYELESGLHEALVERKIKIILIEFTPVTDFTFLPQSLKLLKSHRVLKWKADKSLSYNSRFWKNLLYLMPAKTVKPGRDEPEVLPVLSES
T1 sequence (looked up) 2: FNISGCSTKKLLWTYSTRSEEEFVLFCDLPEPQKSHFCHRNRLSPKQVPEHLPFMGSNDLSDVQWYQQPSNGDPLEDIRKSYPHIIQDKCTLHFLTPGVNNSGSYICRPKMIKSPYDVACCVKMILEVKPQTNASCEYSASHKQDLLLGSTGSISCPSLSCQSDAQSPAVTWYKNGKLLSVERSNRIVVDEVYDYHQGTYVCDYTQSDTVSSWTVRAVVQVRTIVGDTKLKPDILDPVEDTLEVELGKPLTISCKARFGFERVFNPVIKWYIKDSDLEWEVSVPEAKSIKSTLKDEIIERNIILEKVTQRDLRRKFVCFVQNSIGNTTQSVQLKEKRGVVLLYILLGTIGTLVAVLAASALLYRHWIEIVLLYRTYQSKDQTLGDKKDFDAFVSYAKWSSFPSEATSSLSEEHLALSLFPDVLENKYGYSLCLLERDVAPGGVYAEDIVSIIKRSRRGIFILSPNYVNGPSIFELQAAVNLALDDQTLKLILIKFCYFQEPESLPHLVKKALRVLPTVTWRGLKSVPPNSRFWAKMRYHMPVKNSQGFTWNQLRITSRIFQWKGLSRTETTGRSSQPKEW

[2] = target: T2, IL-18 binding protein (IL-18BP) (UniProt O95998 31-194); experiment: cell-based or functional assay
T2 sequence (looked up): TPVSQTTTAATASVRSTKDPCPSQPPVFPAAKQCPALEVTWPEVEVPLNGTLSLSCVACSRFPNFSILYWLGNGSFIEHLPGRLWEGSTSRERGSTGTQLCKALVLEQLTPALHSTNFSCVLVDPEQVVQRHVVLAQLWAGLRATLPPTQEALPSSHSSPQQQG

| Binder | Activity, No BP, DF-100000 [1] | Activity, No BP, DF-500000 [1] | Activity, No BP, DF-2500000 [1] | Activity, +100 nM BP, DF-1000002 [2] | Activity, +100 nM BP, DF-5000003 [2] | Activity, +100 nM BP, DF-25000004 [2] | Ratio (-BP/+BP), DF-1000005 [2] | Ratio (-BP/+BP), DF-5000006 [2] | Ratio (-BP/+BP), DF-25000007 [2] |
| --- | --- | --- | --- | --- | --- | --- | --- | --- | --- |
| IL-18 variant G3P, E6N, D54Y, T63S, N91S, R104Q (ligand) YFPKLNSKLSVIRNLNDQVLFIDQGNRPLFEDMTDSDMRDNAPRTIFIISMYKYSQPRGMAVSISVKSEKISTLSSENKIISFKEMNPPDSIKDTKSDIIFFQQSVPGHDNKMQFESSSYEGYFLASEKERDLFKLILKKEDELGDRSIMFTVQNED | 0.21 | 0.1 | 0.07 | 0.25 | 0.1 | 0.08 | 0.86 | 1.02 | 0.89 |
| IL-18 variant G3P, E6S, K53R, D54Y, S55P, T63I, N91K (ligand) YFPKLSSKLSVIRNLNDQVLFIDQGNRPLFEDMTDSDMRDNAPRTIFIISMYRYPQPRGMAVIISVKSEKISTLSSENKIISFKEMNPPDKIKDTKSDIIFFQRSVPGHDNKMQFESSSYEGYFLASEKERDLFKLILKKEDELGDRSIMFTVQNED | 0.15 | 0.08 | 0.07 | 0.14 | 0.08 | 0.07 | 1.07 | 0.97 | 0.99 |
| IL-18 variant G3P, E6R, K53T, D54Y, S55I, T63V, N91G, R104K (ligand) YFPKLRSKLSVIRNLNDQVLFIDQGNRPLFEDMTDSDMRDNAPRTIFIISMYTYIQPRGMAVVISVKSEKISTLSSENKIISFKEMNPPDGIKDTKSDIIFFQKSVPGHDNKMQFESSSYEGYFLASEKERDLFKLILKKEDELGDRSIMFTVQNED | 0.14 | 0.08 | 0.07 | 0.15 | 0.08 | 0.07 | 0.93 | 0.96 | 0.99 |
| IL-18 variant G3Q, E6N, K53T, D54A, N91K, R104P (ligand) YFQKLNSKLSVIRNLNDQVLFIDQGNRPLFEDMTDSDMRDNAPRTIFIISMYTASQPRGMAVTISVKSEKISTLSSENKIISFKEMNPPDKIKDTKSDIIFFQPSVPGHDNKMQFESSSYEGYFLASEKERDLFKLILKKEDELGDRSIMFTVQNED | 0.07 | 0.08 | 0.07 | 0.07 | 0.09 | 0.08 | 1.03 | 0.89 | 0.95 |
| IL-18 variant G3P, E6D, K53T, D54N, T63A, N91T, R104P (ligand) YFPKLDSKLSVIRNLNDQVLFIDQGNRPLFEDMTDSDMRDNAPRTIFIISMYTNSQPRGMAVAISVKSEKISTLSSENKIISFKEMNPPDTIKDTKSDIIFFQPSVPGHDNKMQFESSSYEGYFLASEKERDLFKLILKKEDELGDRSIMFTVQNED | 0.07 | 0.07 | 0.07 | 0.07 | 0.08 | 0.07 | 0.95 | 0.92 | 1.01 |
| IL-18 variant E6T, D54P, S55K, R104S (ligand) YFGKLTSKLSVIRNLNDQVLFIDQGNRPLFEDMTDSDMRDNAPRTIFIISMYKPKQPRGMAVTISVKSEKISTLSSENKIISFKEMNPPDNIKDTKSDIIFFQSSVPGHDNKMQFESSSYEGYFLASEKERDLFKLILKKEDELGDRSIMFTVQNED | 0.17 | 0.09 | 0.1 | 0.18 | 0.09 | 0.08 | 0.98 | 0.99 | 1.3 |
